167 variants from the RNAGym collection of RNA variant scans (doi:10.1073/pnas.2313332121) can be followed below.

Variants at the floor of the assay were thinned out.

To fix the notation:
B1: TPR 5TU (parent)
chain: GGAUCUUCUCGAUCUAACAAAAAAGACAAAUCUGCCACAAAGCUUGAGAGCAUCUUCGGAUGCAGAGGCGGCAGCCUUCGGUGGCGCGAUAGCGCCAACGUUCUCAACUAUGACACGCAAAACGCGUGCUCCGUUGAAUGGAGUUUAUCAUG

In the series the parent is B1. The series is described as follows: polymerase ribozyme fitness, log enrichment relative to wild type (log ratio); higher = more active; in vitro selection for triplet polymerase activity. A digest of the protocol:
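Mutant libraries were PCR-built and transcribed for each subunit of a heterodimeric triplet polymerase ribozyme and selected for one round in triplicate at −7 °C, frozen, before gel excision of extended constructs and streptavidin-bead capture. Input and output libraries were Illumina-sequenced, keeping genotypes with ≥10 input reads and ≥1 read per output. Fitness is a logarithmic ratio of genotype to wild-type enrichment, in base 2, using inverse-variance-weighted replicate averages.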
As to G70C C87A G140C, the “polymerase ribozyme fitness (log ratio)” value was ≤ -4.2.
For A60U A98U, the “polymerase ribozyme fitness (log ratio)” value is -0.598.
The result for C72U U77C C118G reads ≤ -4.2.
The result for U61A C85U A89U C118A C149U reads -3.61; that for G62A C85U A115U G141U, -1.19.
The result for C63U G83C C96U C105G G117U reads -2.06; that for G67C C85U G126U G133C G143A, ≤ -4.2; that for C69G A91G, -3.88.
As for A64G C87A A115G C125A U148C C149G, the “polymerase ribozyme fitness (log ratio)” value is ≤ -4.2.
The result for A60U G92U A107C reads ≤ -4.2.
Then U61A G84A U134A, with -3.68.
Then G68C G74C C87U C118A U135A C149G, with ≤ -4.2.
As to U61A U101A, the “polymerase ribozyme fitness (log ratio)” value was -1.08.
For the variant C69A A73G C87U, the “polymerase ribozyme fitness (log ratio)” value is ≤ -4.2.
Consider A66C A73C G140U A147C, for which the “polymerase ribozyme fitness (log ratio)” value is ≤ -4.2.
The result for U61A A106U reads -2.41; that for C63G A73G G94A G136A, -0.0432.
Then G67U G70U G81A G83U A97U, with ≤ -4.2; and G67C C79G A97U C116A A142C, with ≤ -4.2; and G62A G84A, with -2.31.
Then G67C G88U C149A, with ≤ -4.2; and A66G A73C C85G A107U, with ≤ -4.2.
Take G68A C93G: the “polymerase ribozyme fitness (log ratio)” value was ≤ -4.2.
Then G62A C75G C96A, with ≤ -4.2; and C69G G74U A89U A98U, with -2.01.
The result for A64U C79U C87A A137G reads ≤ -4.2.
Then A60G A120G G128C A142G, with -2.95; and C69U U78G C96G U134A U135C, with ≤ -4.2.
For the variant A64U C103G U134G G141C, the “polymerase ribozyme fitness (log ratio)” value was ≤ -4.2.
Then A60G G83A A98G, with 0.0303; and G70A, with -2.75.
The result for G70U reads -1.81; that for G70C, -2.92; that for A60C U82A, -1.28.
Then U61A C87U A147C, with -3.49; and G62U C85U C96U C118U, with -1.28.
On to C69A U90C, for which the “polymerase ribozyme fitness (log ratio)” value was ≤ -4.2.
The result for A66C C96A reads ≤ -4.2; that for C69U C87A U90A G117U, ≤ -4.2; that for G65A G70A G94A C116U G143U, ≤ -4.2.
Then C72U U146G, with -0.793; and U61G C75U G92A C149A, with ≤ -4.2; and U61A C69A G86U G117C A119G, with -3.92.
Then G65A G124U, with -1.24.
In the case of C69A C95A C96G G152U, the “polymerase ribozyme fitness (log ratio)” value is -3.59.
Turning to A60G C108U G126U, the “polymerase ribozyme fitness (log ratio)” value was -3.26.
The result for A64U G84U reads ≤ -4.2; that for G70A G94U C96G A142C U148A, ≤ -4.2.
The result for U61G G124C reads -3.25; that for G71C C87U, -3.34; that for G62A C87U C116U G117U, -0.42.
The result for G71U C85U reads -1.67; that for A60G G83A U127G G136A A142G, -3.28; that for G65U G84U G88A, ≤ -4.2.
On to C72G U146G, for which the “polymerase ribozyme fitness (log ratio)” value is ≤ -4.2.
Then C69U A97G G141A, with -0.875; and G70A C87A C99A, with ≤ -4.2.
The result for U61A U102C U111G A115G C123A U139G reads ≤ -4.2; that for C63G C93A, -1.77.
As to C69A G84U A137G, the “polymerase ribozyme fitness (log ratio)” value is -3.58.
The result for A64C G84A G128A reads ≤ -4.2; that for C69A C85U, -1.65.
Regarding G70C G94A, the “polymerase ribozyme fitness (log ratio)” value is -3.61.
Consider C72G C96U, for which the “polymerase ribozyme fitness (log ratio)” value was -4.02.
As to G62A C93U C118U G143U, the “polymerase ribozyme fitness (log ratio)” value is -3.81.
With A60U G94C, the “polymerase ribozyme fitness (log ratio)” value is -1.12.
Then U61A A150G, with -1.15; and G68A C95U, with -3.77; and G70A G86U G88U C99G C105G C114G, with ≤ -4.2.
The result for C72A C103A reads ≤ -4.2; that for C72U A89C C95U C105U, -1.12.
Then G68A G74A U90C, with ≤ -4.2; and U61A G62A, with -1.48.
Regarding U61A C105G A121U, the “polymerase ribozyme fitness (log ratio)” value is ≤ -4.2.
Then G68C C93U, with -4.04; and C63U C72U C105A, with -3.97.
For the variant U61C C85U, the “polymerase ribozyme fitness (log ratio)” value was -2.66.
Then A64U A73G A89C G92A A150U, with ≤ -4.2; and C63A G70A G84A, with ≤ -4.2; and A60G U144G, with 1.35.
Take G68U G71U G86U A97U: the “polymerase ribozyme fitness (log ratio)” value was ≤ -4.2.
Then G67U C96G, with -3.31; and C69U C85U U148C, with -2.71.
Then A60G C72U G143U, with -3.39.
The result for U61G C72U reads -1.45.
As for G62A C96A, the “polymerase ribozyme fitness (log ratio)” value is -2.92.
On to A64C C85G G140A, for which the “polymerase ribozyme fitness (log ratio)” value was ≤ -4.2.
As for G71A C132U, the “polymerase ribozyme fitness (log ratio)” value was -3.5.
The result for U61G G67A G68U C87A A107U G126C C149G reads ≤ -4.2; that for C72G A73C U102G C103G, ≤ -4.2.
The result for G70A U82A C87G A89U C103A C105A reads ≤ -4.2.
Then G70C A98U, with -2.78.
Regarding A64G C76U, the “polymerase ribozyme fitness (log ratio)” value was -3.62.
For U61A A98U, the “polymerase ribozyme fitness (log ratio)” value is -1.28.
On to U61G C125A, for which the “polymerase ribozyme fitness (log ratio)” value was -1.26.
The result for C69A G86A C149A reads ≤ -4.2; that for A64C G68C C87A A91G C99A A121C A122C G143U, ≤ -4.2.
The result for A64G G86U U130C reads ≤ -4.2.
The result for A60G A113G C114U U135A reads -3.05.
For C69G G94A U104G, the “polymerase ribozyme fitness (log ratio)” value is -1.19.
The result for G71C G94A reads -3.93; that for U61A G65C U82G C118A A138U U151A, ≤ -4.2; that for U61A A89C A106C U148A, ≤ -4.2.
The result for C72U U78A G84A reads ≤ -4.2.
Then G62A A115G A120G, with -0.97; and G62C G74A G83A C125A U139G G140A, with ≤ -4.2; and C72A C93A, with ≤ -4.2.
For the variant G68C A122C U127A, the “polymerase ribozyme fitness (log ratio)” value is ≤ -4.2.
Then C69A A89U, with -1.41.
Then G68A C79U A91G, with -4.14.
The result for A64G G68A C85A reads ≤ -4.2; that for A60U A97C U104C U134G U144C, -4.05; that for C69U A122U, -1.27.
As to G71C C87G G128A, the “polymerase ribozyme fitness (log ratio)” value was ≤ -4.2.
Regarding A64C A66C C125U, the “polymerase ribozyme fitness (log ratio)” value was ≤ -4.2.
Then U61A C103U, with -1.31; and G62A G92A C116U, with -2.52; and G68A A147U, with -4.05.
The result for G68U C76U reads ≤ -4.2; that for A64C C72G A91C A106U U109G C123A U148C, ≤ -4.2; that for G67C C125G, ≤ -4.2.
Then A66G U104A U134G G136C, with ≤ -4.2; and A60G C69U A122C U135C, with -3.94.
For the variant A66G A89U C95G C116A C123A, the “polymerase ribozyme fitness (log ratio)” value was ≤ -4.2.
As to C72U U101C, the “polymerase ribozyme fitness (log ratio)” value came to 0.482.
The result for C63U C79U G88C U90G C95A C99U A107U reads ≤ -4.2.
As for G65A G126A, the “polymerase ribozyme fitness (log ratio)” value is -0.138.
On to C69A U134G, for which the “polymerase ribozyme fitness (log ratio)” value is -3.35.
As for U61A G86A, the “polymerase ribozyme fitness (log ratio)” value is -2.67.
The result for U61A A91C reads ≤ -4.2; that for G65A C69A G84A, -1.8; that for G65A G88U A150G, ≤ -4.2.
The result for A60G U102C reads 0.0901; that for A66U C87G U90G U102A C132U, ≤ -4.2.
As for A60U U61C, the “polymerase ribozyme fitness (log ratio)” value is ≤ -4.2.
Turning to G71A G84U U101C A142C, the “polymerase ribozyme fitness (log ratio)” value is ≤ -4.2.
Then A66G G88U A119G U139G, with ≤ -4.2.
Then C63U G141C, with -0.69; and G71C G83A G117C C129A, with ≤ -4.2.
Then G71U C93U, with -3.57; and G68A C105U, with -3.51.
On to G67C G68C C118U A120G, for which the “polymerase ribozyme fitness (log ratio)” value was ≤ -4.2.
Then G70A G86A U90G C93G A110U C114U U134A, with ≤ -4.2.
The result for A64U C93G C114G reads ≤ -4.2; that for G62C C85G, -3.23; that for A60U C129G, -3.43.
Then G70A C93A C123U, with ≤ -4.2; and G68A C116A C123U, with ≤ -4.2.
Regarding U61A A66C A73U A91G, the “polymerase ribozyme fitness (log ratio)” value was ≤ -4.2.
As to C69G G71U G140A, the “polymerase ribozyme fitness (log ratio)” value is ≤ -4.2.
Then G65A U139C G141C, with -3.69; and C69A U90A A147C, with ≤ -4.2; and G62A C85U G86U C87G, with ≤ -4.2.
With A60G U90C C93A A150U, the “polymerase ribozyme fitness (log ratio)” value was -0.698.
Then G68A C85U A110G, with ≤ -4.2; and C69U G86A, with -1.13; and C69U C93A C103U C116A U148G, with ≤ -4.2.
The result for A64C G83C U139C A150C G152U reads ≤ -4.2; that for C63G C75U C93U A120U, -0.964.
The result for A64G C85U reads -3.21; that for G67A C87U C103U C114G C116U A119G, ≤ -4.2.
As for C63A U102C A142G, the “polymerase ribozyme fitness (log ratio)” value is -2.31.
Then G70A C75A C85G G140C, with ≤ -4.2; and A60U G84C C123G, with -3.24.
The result for C69A U77C A98U A122U U146C U151A reads ≤ -4.2.
G70C G86C: the “polymerase ribozyme fitness (log ratio)” value was ≤ -4.2.
The result for C72U C79A C85U reads ≤ -4.2.
